Laboratory results taken from patent US20210315969A1, “GLYCOPROTEINS HAVING LIPID MOBILIZING PROPERTIES AND THERAPEUTIC USES THEREOF” (Aston University, priority 2008, published 2021).
Marks after values point to notes of the source that are not given here.

Columns and labels:
adipocytes [1] = assay: Expression of phospho HSL / HSL in adipocytes incubated 3 h with ZAG or isoprenaline; type: cell-based, mice; conditions: 3 h; isoprenaline 10 μM or ZAG 0.46 μM
adipocytes [2] = assay: Lipolytic responsiveness of adipocytes from ZAG treated ob/ob mice to isoprenaline or BRL37344; type: in vivo
Excerpt: FIG. 5K is a graphical diagram showing the response of adipocytes from epididymal (ep), subcutaneous (sc) and visceral (vis) deposits from ob/ob mice treated with either PBS or ZAG for 5 days to the lipolytic effect of BRI,37344, Differences from PBS controls are indicated as *** p<0.01, while differences in the presence of PD98059 is shown as # p<0.001.
FIG. 9 is a graphical diagram showing glycerol release stimulated by isoprenaline (iso) isolated adipocytes which have been in culture up to 5 days from ob mice treated with and without ZAG.
Lipolytic Assay—Samples to be assayed were incubated with 10^5 to 2×10^5 adipocytes for 2 h in 1 ml Krebs-Ringer bicarbonate buffer, pH 7.2. The concentration of glycerol released was determined enzymatically by the method of Wieland (Wieland, O. Glycerol UV method. In Methods of Enzymatic Analysis (ed. Bergmeyer, H. U.) (Academic Press, London, UK, pp 1404-1409, 1974)). Control samples containing adipocytes alone were analysed to determine the spontaneous glycerol release. Activity was expressed as nmol glycerol released/10^5 adipocytes/2 h.
Adipocytes were removed from mice after 5 days of ZAG and their responsiveness to isoprenaline (iso) was measured after culture in the absence of ZAG (FIG. 9), The responsiveness to iso is higher in ZAG treated mice and this continues for a further 4 days (Which was when expression of ZAG and HSL were increased) and then falls on day 5 (when expression was not increased) down to values of PBS control.
The data shown in Attachment 1 is from a 5 day study where ZAG was administered at 35 μg per day i.v. on a daily basis for 5 days. At the end of the experiment tissues were removed and blotted, or functional assays were carried out with isolated adipocytes. […] When ep adipocytes were prepared and maintained in tissue culture (RPMI 1640 ±10% FCS) ZAG expression was maintained for a further 3 days, even though no ZAG was added to the culture medium (FIG. 6B). […] In fact, as discussed above, too much ZAG is more likely to lead to resistance rather than an increased response.

[3] = 21 day study of ZAG in ob/ob mice; type: in vivo
Procedure: FIG. 7A is a graphical diagram showing weight loss of the ob/ob mice during the 21 day study. ZAG was injected at days 1, 4, 5, 8, 13, 16, 18, and 19; PBS was injected at the same time points.
Animals—Mice—Homozygous obese (ob/ob) mice from the colony maintained at Aston University were used in the present study. The origin and characteristics of Aston ob/ob mice have been previously described. Male mice (20-21 weeks old, weight 90-100 g) were grouped into three per cage in an air conditioned room at 22 ±2° C. with a 12 h-light:12 h-dark cycle and fed a rat and mouse breeding diet (Special Diet Services, Witham, UK) and tap water ad libitum. They were administered ZAG (35 μg) in PBS (100 μl) b.d. by i.v. administration and body weight and food and water intake were monitored daily. Control mice received PBS alone. Body temperature was measured daily by the use of a rectal thermometer (RS Components, Northants, UK). All animal experiments were carried out in accordance with the U.K. Animals (Scientific Procedures) Act 1986.
(§1) Serum Metabolite Determinations—Non-esterified fatty acids (NEFA) were determined using a Wako-ASC-ACOD kit (Wako Chemical GmbH, Neuss, Germany). Triglycerides were determined using a Triglyceride kit (Sigma Chemical Co., Poole, United Kingdom) and 3-hydroxybutyrate by a quantitative enzymatic determination kit (Sigma). Glucose was measured using a glucose analyser (Beckman, Irvine, Calif.) and glycerol was determined enzymatically using the method of Wieland as described in “Methods of Enzymatic Analysis” (Ed, Bergmeyer, H. U.) Vol. 3, pp1404-1409, published by Academic Press, London (1974).

[4] = system: protein expression in WAT, BAT and gastrocnemius muscle; assay: Western blot of WAT, BAT and gastrocnemius muscle of rats treated with ZAG; type: in vivo, Wistar rats
Procedure: Samples of cytosolic protein (10 μg) were resolved on 12% sodium dodecylsuiphate polyacrylamide gel electrophoresis and the proteins were then transferred onto 0.45 μm nitrocellulose menibranes, which had been blocked with 5% N,Tarvel in ids-buffered saline, pH 7.5, at 4° C. overnight, and following four 15 min washes with 0.1% Tween in PBS, incubation with the secondary antibody was performed for 1 h at room temperature. Development was by ECL.

[5] = Daily i.v. ZAG in mature male Wistar rats for 10 days (body weight, composition, plasma metabolites); type: in vivo
Procedure: Animals Rais Mature male Wistar rats (one year old from our own colony) weighing 540 ±82.5 g were housed individually and treated once daily i. v., with either ZAG in PBS (100 μl) (50 μg per 100 g body weight), or with PBS (100 μl) as a control. Both food and water intake and body weight were measured daily. Animals were given free access to food (Special Diet Services, Essex, UK) and water ad libitum. The animal experiment was carried out under the welfare conditions imposed by the British Home Office. After 10 days treatment the animals were terminated and the body composition determined. Animals were heated to 80-90° C. for 7 days until constant weight was achieved. The water content was then determined from the difference between the wet and dry weight. Lipids were extracted from the dry carcass using a sequence of chloroform:methanol (1:1), ethanolla.cetone (1:1) and diethyl ether (120 ml of each) as described by Lundholm et al (14). The solvents were evaporated and the fat weighed. The non-fat carcass mass was calculated as the difference between the initial weight of the carcass and the weight of water and fat.
as §1

[6] = Insulin tolerance test in ob/ob mice administered ZAG for 3 days; type: in vivo
Procedure: An insulin tolerance test was also carried out in ob/ob mice administered. ZAG for 3 days (FIG. 23). Animals were administered two doses of insulin (10 and 20 U/kg) by i.p. injection and blood glucose was measured over the next 60 min. […] The glucose disappearance curve for 20 U/kg +PBS was almost identical to 10 U/kg +ZAG, so at this dose level ZAG is reducing the requirement for insulin by 50%, but this can be overcome by giving more insulin.

B1: Zinc-α2-glycoprotein (protein, listed as Homo sapiens)
chain: QENQDGRYSLTYIYTGLSKHVEDVPAFQALGSLNDLQFFRYNSKDRKSQPMGLWRQVEGMEDWKEDSQLQKAREDMETLKDIVEYYNDSNGSHVLQGRFGCEIENNRSSGAFWKYYYDGKDYIEFNKEIPAWVPFDPAAQITKQKWEAEPVYVQRAKAYLEEECPATLRKYLKYSKNILDRQDPPSVVVTSHQAPGEKKKLKCLAYDFYPGKIDVHWTRAGQVQEPELRGDVLHNGNGTYQSWVVVAVPPQDTAPYSCHVQHSSLAQPLVVPWEAS
notes: recombinant human Zinc-α2-glycoprotein, lipid mobilizing factor, expressed in HEK293F cells
expression of phospho HSL in adipocytes (adipocytes [1]): increased expression of phospho HISL
responsiveness of adipocytes to isoprenaline (adipocytes [2]; adipocytes from mice after 5 days ZAG, cultured in absence of ZAG): higher
lipolytic response of epididymal adipocytes to the β3 agonist BRL37344 (adipocytes [2]; adipocytes from mice treated 5 days): increased lipolytic response
time the increased response to isoprenaline was maintained in tissue culture (adipocytes [2]; isoprenaline 10 μM, absence of ZAG): 4 days
urinary glucose excretion ([3]; first 5 days and 21 day study): progressive decrease
peak body temperature ([3]; just before maximum weight loss): 38.1 °C
Start weight ([3]; ob/ob mice, 21 day study, before treatment, in g): 93.1 ± 1.9
BAT ([3]; ob/ob mice, Day 21 (Table 3)): 0.41 ± 0.35 g
Gastrocnemius ([3]; ob/ob mice, Day 21 (Table 3)): 0.39 ± 0.12 g
Soleus ([3]; ob/ob mice, Day 21 (Table 3)): 0.18 ± 0.07 g
expression of glucose transporter 4 (GLUT4) in BAT, WAT and skeletal muscle ([4]; 10 days): increased expression
expression of phosphorylated forms of PKR and eIF2 α-subunit in gastrocnemius muscle ([4]; total amount did not change): significant reduction
Starting weight ([5]; male rats, before treatment): 530 ± 45 g
Triglycerides (plasma) ([5]; rats treated for 10 days): 1.1 ± 0.09^a mmol/l
decrease in plasma levels of non-esterified fatty acids (NEFA) ([5]; rats, 10 days): 55%
elevation in body temperature ([5]; rats, significant within 24 h of first administration): 0.4 °C
insulin tolerance test, blood glucose response ([6]; insulin 10 U/kg i.p., vs PBS): increased sensitivity to insulin
insulin tolerance test, difference ZAG versus PBS ([6]; insulin 20 U/kg i.p.): difference disappeared
